From US20190271021A1

Target: human TrkB on CHO cells (CHO-K1-hTrkB/pSRE-Luc) (human) (UniProt Q16620)
Assay: cell-based or functional assay

human TrkB on CHO cells (CHO-K1-hTrkB/pSRE-Luc) (human), sequence (Q16620 32-822): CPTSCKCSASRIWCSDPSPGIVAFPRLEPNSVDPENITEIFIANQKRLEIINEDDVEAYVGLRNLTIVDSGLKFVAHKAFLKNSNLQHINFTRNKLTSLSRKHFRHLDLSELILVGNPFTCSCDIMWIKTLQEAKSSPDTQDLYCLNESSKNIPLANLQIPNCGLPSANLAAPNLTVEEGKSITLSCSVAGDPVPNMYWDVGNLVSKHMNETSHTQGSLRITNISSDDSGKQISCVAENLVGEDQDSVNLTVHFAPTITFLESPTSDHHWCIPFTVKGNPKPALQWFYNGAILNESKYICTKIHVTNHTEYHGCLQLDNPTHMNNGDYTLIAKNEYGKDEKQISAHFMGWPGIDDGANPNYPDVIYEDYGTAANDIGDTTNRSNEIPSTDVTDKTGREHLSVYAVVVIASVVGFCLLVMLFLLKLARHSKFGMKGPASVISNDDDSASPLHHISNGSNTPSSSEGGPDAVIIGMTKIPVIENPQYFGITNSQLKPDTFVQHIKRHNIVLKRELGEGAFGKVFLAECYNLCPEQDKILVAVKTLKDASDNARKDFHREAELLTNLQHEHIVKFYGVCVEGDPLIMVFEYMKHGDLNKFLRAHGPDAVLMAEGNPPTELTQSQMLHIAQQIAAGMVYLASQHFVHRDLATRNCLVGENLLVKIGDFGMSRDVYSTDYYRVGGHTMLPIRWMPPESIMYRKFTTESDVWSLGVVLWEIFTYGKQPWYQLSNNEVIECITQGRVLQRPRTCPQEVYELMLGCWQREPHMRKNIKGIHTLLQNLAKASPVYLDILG

relative BDNF activity in TrkB luciferase assay, EC50 [%] | BDNF activity in TrkBluciferase assay, EC50 [% or nM] [%] | Substance
60 | – | complex of pre-pro(IgA)-BDNF(-RGR)_opsin(L)-(G3D)4-G3S_VH<TfR>8D3-CH1-His6, anti-transferrin receptor antibody light chain and not-fused pre-pro(IgA)-BDNF(-RGR)-opsin(L)-T7-His6
80 | – | complex of pre-pro(IgA)-BDNF(-RGR)_opsin(L)-(G3D)4-G3S_VH<TfR>8D3-CH1-His6, anti-transferrin receptor antibody light chain and not-fused pre-pro(IgA)-BDNF(-RGR; R81N)-His6 (from UniProt P23560 1-244)
110 | – | complex of pre-pro(IgA)-BDNF(-RGR; R81N)_opsin(L)-(G3D)4-G3S_VH<TfR>8D3-CH1-His6, anti-transferrin receptor antibody light chain and not-fused pre-pro(IgA)-BDNF(-RGR; R81N)-His6 (from UniProt P23560 1-244)
200 | – | pre-pro(IgA)-BDNF(-RGR)_opsin(L)-(G3D)4-G3S_VH<TfR>8D3-CH1-His6 with chimeric rat/human anti-transferrin receptor antibody light chain
– | 2830 | pre-pro-BDNF(-RGR; K25N; T35N; Q79T)-T7-His6 (ligand)
